# Source: patent publication US20060277614A1 (INSTITUT NAT L DE LA SANTE ET DE LA RECH MED, published 2006)
# T1: human prolactin receptor (human, UniProt P16471 25-622)
# T1 sequence (looked up): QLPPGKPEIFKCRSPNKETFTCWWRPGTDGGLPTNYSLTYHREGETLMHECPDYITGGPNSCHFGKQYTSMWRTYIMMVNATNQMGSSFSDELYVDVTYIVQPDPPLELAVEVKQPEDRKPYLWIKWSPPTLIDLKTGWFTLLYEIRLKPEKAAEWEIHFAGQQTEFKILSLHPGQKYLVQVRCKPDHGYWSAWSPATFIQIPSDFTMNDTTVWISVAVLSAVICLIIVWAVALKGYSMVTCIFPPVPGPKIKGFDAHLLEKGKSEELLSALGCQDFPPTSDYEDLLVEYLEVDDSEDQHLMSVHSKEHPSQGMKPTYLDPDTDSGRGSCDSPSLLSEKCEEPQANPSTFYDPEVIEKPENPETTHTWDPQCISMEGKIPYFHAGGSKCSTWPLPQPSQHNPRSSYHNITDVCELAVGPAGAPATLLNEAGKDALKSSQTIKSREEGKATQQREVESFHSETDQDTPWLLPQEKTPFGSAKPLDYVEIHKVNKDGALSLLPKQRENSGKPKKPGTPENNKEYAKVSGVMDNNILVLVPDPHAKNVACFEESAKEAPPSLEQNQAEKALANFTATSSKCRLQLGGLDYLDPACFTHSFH
# Experiments:
# human prolactin receptor [1] = biological target: T1, human prolactin receptor; test: competition with [125I]-hPRL on HL5 cell homogenates (human PRLR)
# Procedure: (§1) The affinity of the various hPRL analogs for the human PRLR was estimated by their ability to compete [¹²⁵I]-hPRL for binding to this receptor. Binding affinities were determined using cell homogenates of HL5 cells (expressing the human PRLR), following the procedure previously described (KINET et al., J. Biol. Chem., 274, 26033-26043, 1999).
# (§2) Briefly, hPRL was iodinated using IODOGEN, and its specific activity was in the range of 40-50 μCi/μg. Binding assays were performed overnight at room temperature using 150-300 μg cell homogenate protein in the presence of 30,000 cpm [¹²⁵I]-hPRL and increasing concentrations of unlabeled competitor (WT or mutated hPRL).
# (§3) The relative binding affinity of hPRL analogs was calculated as the ratio of their IC₅₀ with respect to that of WT hPRL calculated from competition curves (regression in the linear part of sigmoids). Results presented in FIG. 2A are representative of at least three independent experiments performed in duplicate.
# human prolactin receptor [2] = biological target: T1, human prolactin receptor; test: competition with [125I]-hPRL on HL5 cell homogenates (human PRLR); mean of three experiments
# Procedure: as §1, §2, §3
# human prolactin receptor [3] = biological target: T1, human prolactin receptor; test: cell-based or functional assay
# [4] = biological target: human prolactin receptor (human) (UniProt P16471); test: cell-based or functional assay
# [5] = biological target: human prolactin receptor (human) (UniProt P16471); test: competition with [125I]-hPRL on HL5 cell homogenates (human PRLR); ratio of IC50 to that of WT hPRL
# human prolactin receptor [6] = biological target: T1, human prolactin receptor; test: competition of unlabeled WT hPRL with [125I]-hPRL on HL5 cell homogenates (human PRLR); mean of three experiments
# Procedure: as §1, §2, §3
molecule,measurement,setting,value
Δ1-9-G129R-hPRL (from UniProt P01236 10-199) (ligand),fold lower affinity compared to WT hPRL,human prolactin receptor [1],10 fold
same,IC50,human prolactin receptor [2],0.166 µg/mL
same,"Ba/F3-hPRLR cell proliferation, antagonism of 10 ng/ml WT hPRL, molar excess needed",human prolactin receptor [3],10 to 50 fold
Δ1-9-hPRL (from UniProt P01236 10-199) (ligand),"LHRE-luciferase reporter in HL5 cells, EC50 against WT hPRL",[4],2 fold
same,"LHRE-luciferase reporter in HL5 cells, maximal response against WT hPRL",[4],120 to 140%
same,increase in affinity compared to WT hPRL,[5],20%
Δ1-10-hPRL (from UniProt P01236 11-199) (ligand),"LHRE-luciferase reporter in HL5 cells, EC50 against WT hPRL",[4],2 fold
same,"LHRE-luciferase reporter in HL5 cells, maximal response against WT hPRL",[4],120 to 140%
"Δ1-12-hPRL (ligand, human) MVTLRDLFDRAVVLSHYIHNLSSEMFSEFDKRYTHGRGFITKAINSCHTSSLATPEDKEQAQQMNQKDFLSLIVSILRSWNEPLYHLVTEVRGMQEAPEAILSKAVEIEEQTKRLLEGMELIVSQVHPETKENEIYPVWSGLPSLQMADEESRLSAYYNLLHCLRRDSHKIDNYLKLLKCRIIHNNNC","LHRE-luciferase reporter in HL5 cells, EC50 against WT hPRL",human prolactin receptor [3],~2 fold
"wild-type human prolactin (ligand, UniProt P01236 29-227, looked up, mature; Monomeric fraction used; Residue numbers (Cys4, Cys11, Gly129) count on the mature hormone; also called WT hPRL; hPRL) LPICPGGAARCQVTLRDLFDRAVVLSHYIHNLSSEMFSEFDKRYTHGRGFITKAINSCHTSSLATPEDKEQAQQMNQKDFLSLIVSILRSWNEPLYHLVTEVRGMQEAPEAILSKAVEIEEQTKRLLEGMELIVSQVHPETKENEIYPVWSGLPSLQMADEESRLSAYYNLLHCLRRDSHKIDNYLKLLKCRIIHNNNC",IC50,human prolactin receptor [6],0.018 µg/mL
"G129R-hPRL (ligand, human, UniProt P01236 29-227, looked up, mature; also called single mutant G129R-hPRL) LPICPGGAARCQVTLRDLFDRAVVLSHYIHNLSSEMFSEFDKRYTHGRGFITKAINSCHTSSLATPEDKEQAQQMNQKDFLSLIVSILRSWNEPLYHLVTEVRGMQEAPEAILSKAVEIEEQTKRLLERMELIVSQVHPETKENEIYPVWSGLPSLQMADEESRLSAYYNLLHCLRRDSHKIDNYLKLLKCRIIHNNNC",fold lower affinity compared to WT hPRL,human prolactin receptor [1],~10 fold
"Δ1-14-hPRL (ligand, human) MLRDLFDRAVVLSHYIHNLSSEMFSEFDKRYTHGRGFITKAINSCHTSSLATPEDKEQAQQMNQKDFLSLIVSILRSWNEPLYHLVTEVRGMQEAPEAILSKAVEIEEQTKRLLEGMELIVSQVHPETKENEIYPVWSGLPSLQMADEESRLSAYYNLLHCLRRDSHKIDNYLKLLKCRIIHNNNC","LHRE-luciferase reporter in HL5 cells, EC50 against WT hPRL",human prolactin receptor [3],~3 fold
"Δ1-14-G129R-hPRL (ligand, human, range 15-199; Mature-hormone numbering; also called Δ1-14-G129R-PRL; double mutant Δ1-14-G129R-hPRL) MLRDLFDRAVVLSHYIHNLSSEMFSEFDKRYTHGRGFITKAINSCHTSSLATPEDKEQAQQMNQKDFLSLIVSILRSWNEPLYHLVTEVRGMQEAPEAILSKAVEIEEQTKRLLERMELIVSQVHPETKENEIYPVWSGLPSLQMADEESRLSAYYNLLHCLRRDSHKIDNYLKLLKCRIIHNNNC",fold lower affinity compared to WT hPRL,human prolactin receptor [1],~10 fold
same,IC50,human prolactin receptor [2],0.187 µg/mL
"Δ1-13-hPRL (ligand, human) MTLRDLFDRAVVLSHYIHNLSSEMFSEFDKRYTHGRGFITKAINSCHTSSLATPEDKEQAQQMNQKDFLSLIVSILRSWNEPLYHLVTEVRGMQEAPEAILSKAVEIEEQTKRLLEGMELIVSQVHPETKENEIYPVWSGLPSLQMADEESRLSAYYNLLHCLRRDSHKIDNYLKLLKCRIIHNNNC","LHRE-luciferase reporter in HL5 cells, EC50 against WT hPRL",human prolactin receptor [3],~2 fold
"Δ1-11-hPRL (ligand, human) MQVTLRDLFDRAVVLSHYIHNLSSEMFSEFDKRYTHGRGFITKAINSCHTSSLATPEDKEQAQQMNQKDFLSLIVSILRSWNEPLYHLVTEVRGMQEAPEAILSKAVEIEEQTKRLLEGMELIVSQVHPETKENEIYPVWSGLPSLQMADEESRLSAYYNLLHCLRRDSHKIDNYLKLLKCRIIHNNNC","LHRE-luciferase reporter in HL5 cells, EC50 against WT hPRL",human prolactin receptor [3],~2 fold
